Target: Vlp15/16 of B. miyamotoi HT31 (B. miyamotoi HT31)
Assay: ELISA; Vlp15/16 (5 µg/ml) immobilised, increasing amounts of plasminogen (0 to 20 µM); non-linear regression, one-site specific binding model

Human glu-plasminogen (natural protein)
Kd: 354 nM
